Patent US20210388087A1 (Chugai, published 2021)
Positions count from the first letter of the chain named. Numbers in names are those of the source.

T1: Human CD3eg linker (human)
T1 construct: single-chain construct; also called recombinant human CD3
T1 chain: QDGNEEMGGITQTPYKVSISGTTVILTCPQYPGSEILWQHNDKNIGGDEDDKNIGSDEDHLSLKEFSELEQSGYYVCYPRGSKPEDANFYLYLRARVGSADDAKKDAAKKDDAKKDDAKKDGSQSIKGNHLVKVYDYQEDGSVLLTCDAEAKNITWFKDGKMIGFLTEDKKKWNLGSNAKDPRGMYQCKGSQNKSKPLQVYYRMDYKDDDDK

B1: CE115HA000 H35A one-arm antibody (antibody, human IgG1, kappa, L234A L235A, N297A, name in Kabat numbering)
heavy: QVQLVESGGGVVQPGRSLRLSCAASGFTFSNAWMAWVRQAPGKGLEWVAQIKAKSNNYATYYAESVKGRFTISRDDSKNSLYLQMNSLKTEDTAVYYCRYVHYGAYYGVDAWGQGTTVTVSSASTKGPSVFPLAPSSKSTSGGTAALGCLVKDYFPEPVTVSWNSGALTSGVHTFPAVLQSSGLYSLSSVVTVPSSSLGTQTYICNVNHKPSNTKVDKKVEPKSCDKTHTCPPCPAPEAAGGPSVFLFPPKPKDTLMISRTPEVTCVVVDVSHEDPEVKFNWYVDGVEVHNAKTKPREEQYASTYRVVSVLTVLHQDWLNGKEYKCKVSNKALPAPIEKTISKAKGQPREPQVYTLPPSRCELTKNQVSLSCAVKGFYPSDIAVEWESNGQPENNYKTTPPVLDSDGSFFLVSKLTVDKSRWQQGNVFSCSVMHEALHNHYTQKSLSLSPDYKDDDDK
chain: EPKSSDKTHTCPPCPAPELLGGPSVFLFPPKPKDTLMISRTPEVTCVVVDVSHEDPEVKFNWYVDGVEVHNAKTKPREEQYNSTYRVVSVLTVLHQDWLNGKEYKCKVSNKALPAPIEKTISKAKGQPREPQVCTLPPSRDELTKNQVSLWCLVKGFYPSDIAVEWESNGQPENNYKTTPPVLDSDGSFFLYSKLTVDKSRWQQGNVFSCSVMHEALHNRYTQKSLSLSP
light: DIVMTQSPLSLPVTPGEPASISCRSSQSLVHSNRNTYLHWYQQKPGQAPRLLIYKVSNRFSGVPDRFSGSGSGTDFTLKISRVEAEDVGVYYCGQGTQVPYTFGQGTKLEIKRTVAAPSVFIFPPSDEQLKSGTASVVCLLNNFYPREAKVQWKVDNALQSGNSQESVTEQDSKDSTYSLSSTLTLSKADYEKHKVYACEVTHQGLSSPVTKSFNRGEC
B2: CE115HA000 A56D one-arm antibody (antibody, human IgG1, kappa, L234A L235A, N297A, name in Kabat numbering)
heavy: B1 heavy with A35H, A59D
chain: B1 chain
light: B1 light
B3: CE115HA000 A52aV one-arm antibody (antibody, human IgG1, kappa, L234A L235A, N297A, name in Kabat numbering)
heavy: B1 heavy with A35H, A53V
chain: B1 chain
light: B1 light
B4: CE115HA000 A52aG one-arm antibody (antibody, human IgG1, kappa, L234A L235A, N297A, name in Kabat numbering)
heavy: B1 heavy with A35H, A53G
chain: B1 chain
light: B1 light
B5: CE115HA000 A32Y one-arm antibody (antibody, human IgG1, kappa, L234A L235A, N297A, name in Kabat numbering)
heavy: B1 heavy with A32Y, A35H
chain: B1 chain
light: B1 light
B6: CE115HA000 A52aS one-arm antibody (antibody, human IgG1, kappa, L234A L235A, N297A, name in Kabat numbering)
heavy: B1 heavy with A35H, A53S
chain: B1 chain
light: B1 light
B7: CE115HA000 A52aY one-arm antibody (antibody, human IgG1, kappa, L234A L235A, N297A, name in Kabat numbering)
heavy: B1 heavy with A35H, A53Y
chain: B1 chain
light: B1 light
B8: CE115HA000 A52aP one-arm antibody (antibody, human IgG1, kappa, L234A L235A, N297A, name in Kabat numbering)
heavy: B1 heavy with A35H, A53P
chain: B1 chain
light: B1 light
B9: CE115HA000 A52aD one-arm antibody (antibody, human IgG1, kappa, L234A L235A, N297A, name in Kabat numbering)
heavy: B1 heavy with A35H, A53D
chain: B1 chain
light: B1 light
B10: CE115HA000 A56G one-arm antibody (antibody, human IgG1, kappa, L234A L235A, N297A, name in Kabat numbering)
heavy: B1 heavy with A35H, A59G
chain: B1 chain
light: B1 light
B11: CE115HA000 A52aE one-arm antibody (antibody, human IgG1, kappa, L234A L235A, N297A, name in Kabat numbering)
heavy: B1 heavy with A35H, A53E
chain: B1 chain
light: B1 light
B12: dBBDu183H Y94F/dBBDu072L (antibody, name in Kabat numbering, V domains shown)
VH: QVQLVESGGGLVQPGRSLRLSCAASGFTFSNAWMHWVRQAPGKGLEWVAQIKDKGNAYAAYYAPSVKGRFTISRDDSKNSIYLQMNSLKTEDTAVYYCHFVHYASASTVLPAFGVDAWGQGTTVTVSS
VL: DIVMTQSPLSLPVTPGEPASISCQASQELVHMNRNTYLHWYQQKPGQAPRLLIYKVSNRFPGVPDRFSGSGSGTDFTLKISRVEAEDVGVYYCAQGTSVPFTFGQGTKLEIK
B13: dBBDu183H Y97G/dBBDu072L (antibody, name in Kabat numbering, V domains shown)
VH: B12 VH with F100Y, Y103G
VL: B12 VL
B14: dBBDu183H Y97W/dBBDu072L (antibody, name in Kabat numbering, V domains shown)
VH: B12 VH with F100Y, Y103W
VL: B12 VL
B15: dBBDu183H Y97T/dBBDu072L (antibody, name in Kabat numbering, V domains shown)
VH: B12 VH with F100Y, Y103T
VL: B12 VL
B16: dBBDu183H Y97F/dBBDu072L (antibody, name in Kabat numbering, V domains shown)
VH: B12 VH with F100Y, Y103F
VL: B12 VL
B17: dBBDu183H Y97V/dBBDu072L (antibody, name in Kabat numbering, V domains shown)
VH: B12 VH with F100Y, Y103V
VL: B12 VL
B18: dBBDu183H Y94Q/dBBDu072L (antibody, name in Kabat numbering, V domains shown)
VH: B12 VH with F100Q
VL: B12 VL
B19: dBBDu183H Y97K/dBBDu072L (antibody, name in Kabat numbering, V domains shown)
VH: B12 VH with F100Y, Y103K
VL: B12 VL
B20: dBBDu183H Y94K/dBBDu072L (antibody, name in Kabat numbering, V domains shown)
VH: B12 VH with F100K
VL: B12 VL
B21: dBBDu183H Y94V/dBBDu072L (antibody, name in Kabat numbering, V domains shown)
VH: B12 VH with F100V
VL: B12 VL
B22: dBBDu183H Y94S/dBBDu072L (antibody, name in Kabat numbering, V domains shown)
VH: B12 VH with F100S
VL: B12 VL
B23: dBBDu183H Y97H/dBBDu072L (antibody, name in Kabat numbering, V domains shown)
VH: B12 VH with F100Y, Y103H
VL: B12 VL
B24: dBBDu183H Y94W/dBBDu072L (antibody, name in Kabat numbering, V domains shown)
VH: B12 VH with F100W
VL: B12 VL
B25: dBBDu183H Y94R/dBBDu072L (antibody, name in Kabat numbering, V domains shown)
VH: B12 VH with F100R
VL: B12 VL
B26: dBBDu183H Y97E/dBBDu072L (antibody, name in Kabat numbering, V domains shown)
VH: B12 VH with F100Y, Y103E
VL: B12 VL
B27: dBBDu183H Y94N/dBBDu072L (antibody, name in Kabat numbering, V domains shown)
VH: B12 VH with F100N
VL: B12 VL
B28: dBBDu183H Y94G/dBBDu072L (antibody, name in Kabat numbering, V domains shown)
VH: B12 VH with F100G
VL: B12 VL
B29: dBBDu183H Y97Q/dBBDu072L (antibody, name in Kabat numbering, V domains shown)
VH: B12 VH with F100Y, Y103Q
VL: B12 VL
B30: dBBDu183H Y97R/dBBDu072L (antibody, name in Kabat numbering, V domains shown)
VH: B12 VH with F100Y, Y103R
VL: B12 VL
B31: dBBDu183H Y97D/dBBDu072L (antibody, name in Kabat numbering, V domains shown)
VH: B12 VH with F100Y, Y103D
VL: B12 VL
B32: dBBDu183H Y94H/dBBDu072L (antibody, name in Kabat numbering, V domains shown)
VH: B12 VH with F100H
VL: B12 VL
B33: dBBDu183H Y97S/dBBDu072L (antibody, name in Kabat numbering, V domains shown)
VH: B12 VH with F100Y, Y103S
VL: B12 VL
B34: dBBDu183H Y97N/dBBDu072L (antibody, name in Kabat numbering, V domains shown)
VH: B12 VH with F100Y, Y103N
VL: B12 VL
B35: dBBDu183H Y94T/dBBDu072L (antibody, name in Kabat numbering, V domains shown)
VH: B12 VH with F100T
VL: B12 VL

What follows are binders tested against T2, CD3 epsilon homodimer protein (UniProt P07766 23-126) (assay: SPR (Biacore T200), CD3 epsilon homodimer on CM4 chip, one-arm antibody as analyte, 25 C;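 further: homodimer attached to the sensor surface via amine coupling, HBS-EP+ used as running buffer during binding runs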).
T2 construct: immobilized on Sensor chip CM4 by amine coupling; also called CD3 (CD3 epsilon)
T2 sequence (P07766 23-126): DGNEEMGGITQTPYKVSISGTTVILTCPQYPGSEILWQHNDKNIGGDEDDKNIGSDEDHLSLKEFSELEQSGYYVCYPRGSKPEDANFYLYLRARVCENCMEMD

Row | ratio of amounts bound (altered form / CE115HA000) | Binder
1 | 0.17 | B1
2 | 0.51 | B2
3 | 0.52 | B3
4 | 0.81 | B4
5 | 0.33 | B5
6 | 1.05 | B6
7 | 0.31 | B7
8 | 0.15 | B8
9 | 1.34 | B9
10 | 0.61 | B10
11 | 0.57 | B11

Molecular target: T1, Human CD3eg linker
Experiment: SPR, vs unmutated H183/L072

Row | fold change of affinity | Binder
12 | 0.4 fold | B12
13 | 0 fold | B13
14 | 0.2 fold | B14
15 | 0 fold | B15
16 | 0 fold | B16
17 | 0 fold | B17
18 | 0.4 fold | B18
19 | 0 fold | B19
20 | 0 fold | B20
21 | 2.6 fold | B21
22 | 0 fold | B22
23 | 0 fold | B23
24 | 0.4 fold | B24
25 | 0.3 fold | B25
26 | 0 fold | B26
27 | 0 fold | B27
28 | 1.1 fold | B28
29 | 0 fold | B29
30 | 0 fold | B30
31 | 0 fold | B31
32 | 0.5 fold | B32
33 | 0 fold | B33
34 | 0 fold | B34
35 | 0.3 fold | B35
